Laboratory results reported in PMC8809517, “Cofactor-independent RNA editing by a synthetic S-type PPR protein”.
Positions count from the first letter of the chain named.

T1: GFP-9S library array, motif 4 ND D124E (synthetic construct, D124E)
T1 chain: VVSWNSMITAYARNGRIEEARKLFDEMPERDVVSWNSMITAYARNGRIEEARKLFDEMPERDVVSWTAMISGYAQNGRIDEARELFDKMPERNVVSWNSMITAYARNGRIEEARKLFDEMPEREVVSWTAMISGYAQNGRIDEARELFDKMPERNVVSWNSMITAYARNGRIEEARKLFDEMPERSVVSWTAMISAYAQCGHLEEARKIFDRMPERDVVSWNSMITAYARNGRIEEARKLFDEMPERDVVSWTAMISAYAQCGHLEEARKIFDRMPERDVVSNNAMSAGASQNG

T2: GFP-9S library array, motif 4 ND N98G;D124K (synthetic construct, N98G;D124K)
T2 chain: T1 chain with N98G, E124K

T3: GFP-9S library array, motif 4 ND N98A;D124I (synthetic construct, N98A;D124I)
T3 chain: T1 chain with N98A, E124I

T4: GFP-9S library array, motif 4 ND N98I;D124W (synthetic construct, N98I;D124W)
T4 chain: T1 chain with N98I, E124W

T5: GFP-9S library array, motif 4 ND N98F;D124L (synthetic construct, N98F;D124L)
T5 chain: T1 chain with N98F, E124L

B1: IR-rpoA-A (ssRNA)
RNA: AUUAAACGUGA
B2: IR-rpoA-U (ssRNA)
RNA: AUUAUACGUGA
B3: Cy5-rpoA (ssRNA)
RNA: AUUACACGUGA
B4: Cy5-rpoA-G (ssRNA)
RNA: AUUAGACGUGA

How the values were obtained:
Assay in all cases: high-throughput RNA pulldown from lysate on Ni-NTA beads; HRP: 50 mM Tris pH 8, 150 mM NaCl, 1 mM beta-mercaptoethanol, 50 ug/ml BSA, 3 ug/ml yeast RNA, 0.5% heparin; ITC and FP: Tris pH 8, 200 mM KCl, 5% glycerol; MST: 50 mM Tris pH 8, 200 mM NaCl, 1 mM DTT, BSA, heparin, 0.05% Tween 20
Conditions in all cases: tags: N-terminal His-eGFP
[1] = target: T1, GFP-9S library array, motif 4 ND D124E
[2] = target: T2, GFP-9S library array, motif 4 ND …
[3] = target: T3, GFP-9S library array, motif 4 ND …
[4] = target: T4, GFP-9S library array, motif 4 ND …
[5] = target: T5, GFP-9S library array, motif 4 ND …

| Binder | Kd ([1]; label: 5' IRDye 800CW) | Kd ([2]; label: 5' IRDye 800CW) | Kd ([3]; label: 5' IRDye 800CW) | Kd ([4]; label: 5' IRDye 800CW) | Kd ([5]; label: 5' IRDye 800CW) | Kd ([1]; label: 5' Cy5) | Kd ([2]; label: 5' Cy5) | Kd ([3]; label: 5' Cy5) | Kd ([4]; label: 5' Cy5) | Kd ([5]; label: 5' Cy5) |
| --- | --- | --- | --- | --- | --- | --- | --- | --- | --- | --- |
| B1 | 139 nM | 34.3 nM | 203 nM | 252 nM | 232 nM |  |  |  |  |  |
| B2 | 3.54 nM | 59.7 nM | 249 nM | 136 nM | 166 nM |  |  |  |  |  |
| B3 |  |  |  |  |  | 10.5 nM | 103 nM | 103 nM | 74.5 nM | 76.3 nM |
| B4 |  |  |  |  |  | 276 nM | 65.4 nM | 107 nM | 98.3 nM | 90.2 nM |
